Laboratory results as given in the supplement of paper PMC12764529.
± gives the half width of the 95% confidence interval.

assay: folding stability dG unfold (combined trypsin and chymotrypsin); higher = more stable
How it was run: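 Sequencing followed digestion of designed mini-proteins with trypsin and chymotrypsin, each at 11 concentrations in threefold dilutions together with a no-protease condition. The mini-proteins were under 80 residues, had no cysteine, sat in a PA-tagged cDNA display construct, and were kept only if AlphaFold2 dimer inter-PAE was above 15. From the counts, Bayesian fitting gave K50, and unfolding free energy was derived against a sequence-predicted unfolded-state K50 and a shared folded-state K50, per protease or combined.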

“SAMLVVELEVDLPELKYMTPEEAEEIAEALAVEAAKELFPESDVKVKEVVVEPEPETGKLKVTVVLENESAG [r14_310_TrMRF]” and “SAGGSAGGSAGNWIIRIRWPGKSIMFVLPEGMNVDEIATNIQDEFNYPIDIEVIPPGQPISAGGSAGGSAGG [r11_805_TrROS]” are within error of each other in “folding stability dG unfold” value: 2.46 ± 0.081 kcal/mol for the first, 2.5 ± 0.15 kcal/mol for the second.

Compared with “SVSSKISKVVSETVEDDKRTVTIEVNVPSPVVEIYDSSGKVIKTVPLGKKTTITVTTDPKGTSVSVKVLNSA [r9_917_JUSTAS]”, “SAGGSAGGSAGPEKMRIEDIEHERNPEDGRHTVKIKIPNGPDITFQFTDPEDLDDFKLEVSAGGSAGGSAGG [r11_711_TrROS]” is lower in “folding stability dG unfold” value: 0.697 ± 0.11 kcal/mol for the first, 0.0382 ± 0.22 kcal/mol for the second.

First: SNFPPGQQIKFTFRLPDNGMKIKIEVHVHPDGYVQVRMERENPDNGKRVKITFYVPGPTLDEILDFIEQFSA [r9_618_TrROS]
Second: SAGGSAGGSSNGITLKKPGGIEIKLPKPPSVKPVTVTTTFVFTTPDGKLVFVPKTTTLPPSLLSAGGSAGGS [r12_1027_JUSTAS]
The “folding stability dG unfold” value of the first is higher: 3.52 ± 0.08 kcal/mol for the first, 1.83 ± 0.29 kcal/mol for the second.

Going from “SAMKEMTAEELAKKLEEELRKLFPDVEIKVEIVEVKEDYVVIKVEITVRLKKPDGKEVEFKLELVLKVDSAG [r14_187_TrROS_Hall]” to “SAGGSAGGLYIVRIEIYHPENGKEWTIMIPVPSEEEAKEEAEELAKTFAKKNGYKIEVEVFPLPSAGGSAGG [r6_787_TrROS]”, the “folding stability dG unfold” value falls from 3.4 ± 0.32 kcal/mol to 2.11 ± 0.1 kcal/mol.

First: SAGGSAKIKITIEYDEETGEVRIKIEVDGKEYEITLSREELANMTIEELAKKLGVEIEEVEIYPVPSAGGSA [r15_801_TrROS_Hall]
Second: SAGGSKMEPGPVKIKVTDGGEEHTFDFQVSVMPDPDGRPMIMFSFPDGNPLSIPLDDAEKITDIEVSAGGSA [r2_297_TrROS]
The “folding stability dG unfold” value of the first is higher: 3.35 ± 0.3 kcal/mol for the first, 0.106 ± 0.18 kcal/mol for the second.

“SAGGSAGGSAGGGRTYTFTLPDGTVLTVTADDMTEEEIRAKLEAEGGEIVEITVEPGLSSAGGSAGGSAGGS [r10_572_JUSTAS]” and “SAGGSAGGSAGPYKVKVTLKNGEVLEFTIPEEFKDLKEVKIDLPEELKENIVKVEIEPLESAGGSAGGSAGG [r17_528_TrMRF]” are within error of each other in “folding stability dG unfold” value: 2.86 ± 0.07 kcal/mol for the first, 2.95 ± 0.059 kcal/mol for the second.

Going from “SAGGSAGGMIRFDTPEEVEAALKALRAKLPPGATLVIEIEVDGKLVRVEFKDGKITKVEVRELPSAGGSAGG [r6_288_TrROS_Hall]” to “SAGGPFRIEDISIQRDPDNGKLTIIIPFPAPPGQEIKIKVRDPGNGKEKKFDMKVEPLPNGYLTMTISAGGS [r8_195_TrROS]”, the “folding stability dG unfold” value falls from 3.57 ± 0.2 kcal/mol to 1.91 ± 0.21 kcal/mol.

Going from “SAGGSAGGSKPKRRRVQIELPLPPGKPITPDHIREFMRPFGAPKVEITNIHPTNGRWIITFELSAGGSAGGS [r20_79_TrROS]” to “SAGGSAGKTKIEIRPLPDGSYLVLVTSPDGSKSEFIADGPDIPLPELLKKLNLPPDIEVVNAELPESAGGSA [r15_167_TrMRF]”, the “folding stability dG unfold” value rises from 2.42 ± 0.14 kcal/mol to 2.98 ± 0.13 kcal/mol.

Compared with “SAGGMSVTFEKEDKTYVITFEPSPEGGYLVTLEVLDPKTGEAKPVATAEFTEGSLEDAVVALLAAEESAGGS [r16_378_TrMRF]”, “SGSFASVTEDSLPDGGGYIVATEVSTGASRVYPPGTVVAEPAPADSTLVETLYDPATGEPLSTTTRTVAASA [r9_209_JUSTAS]” is lower in “folding stability dG unfold” value: 3.7 ± 0.12 kcal/mol for the first, -0.0457 ± 0.11 kcal/mol for the second.

Going from “SAGGSAGGSAGGDWITFTNPGGYKVTVEVDENGWMRVEVYPNGKPQEVPMPLEELKKNAPSAGGSAGGSAGG [r7_178_TrROS]” to “SAGGSAGGSMKIKPGQVVKIKVEKDGKIYEFEAKIDPKTGKLVEIKSAEELKGLKIKEIEIVPSAGGSAGGS [r12_6_TrROS_Hall]”, the “folding stability dG unfold” value rises from 0.423 ± 0.19 kcal/mol to 1.99 ± 0.062 kcal/mol.

Going from “SAGGPGEEYKHPNGMAMRRDPENGKVEMRKVPPIPIEIKIEIDPALGWIRLSITIPNGKKIEFTFPFSAGGS [r16_453_TrROS]” to “SAKITKIEINEDGTLTITIEVELPEGMEADELVIFVEVDGKIYEATIKKDGTVEIKLKNIKDLKIYIFKKSA [r9_722_TrROS_Hall]”, the “folding stability dG unfold” value rises from 3.32 ± 0.2 kcal/mol to 4.95 ± 0.16 kcal/mol.

Going from “SAMLSPAEIKRPRLLEIIETIKKLGNFSVDIKRLPGDGDVKVKIELDPNKIEEAAKITGIPLSEIKKLVSAG [r14_688_JUSTAS]” to “KPKLTIEYDEETGKFTITLPDGRKIEIELKKDGTVVRIRVKENGKEREIELTLDELKALLDNKDVTIEIIPS [r1_18_TrROS_Hall]”, the “folding stability dG unfold” value rises from 0.673 ± 0.31 kcal/mol to 3.81 ± 0.23 kcal/mol.

First: SAGGKKEKKLTLLFSDPNGKLSLVIEVYKKKDGSYWAVFYNPETGKKEEYKFKSLEELEEAVKELLKKSAGG [r13_857_TrMRF]
Second: SMETPPEELVERVREYLASQGYTVTSVEVTPLPDGSVRVEVTATPPDASTTLTITVTVPPDGTVVVEVTAQS [r1_460_JUSTAS]
The “folding stability dG unfold” value of the first is lower: 4.27 ± 0.077 kcal/mol for the first, 5.3 ± 0.15 kcal/mol for the second.

Compared with “SAEKLKKILENIEKVEFDEETGEVYITVKSVEEAEKALKELFPDVEIEKDEDGNYRFRIRVEKLPEELLSAG [r14_115_TrROS_Hall]”, “SAMRFVVRVEGDLEEVERALREEFDFEMEAEREEDGRLVVVVEAEPEELERLVEALERLPDFPVEIEPESAG [r14_521_TrMRF]” is lower in “folding stability dG unfold” value: 4.4 ± 0.084 kcal/mol for the first, 0.93 ± 0.062 kcal/mol for the second.

Going from “SAGGSAGGMTPVVVTVTITLPNGEVVEYRVPVAPDELEAAAEAVKEPLEAQGVDVEVEIEAVAASAGGSAGG [r6_721_JUSTAS]” to “SAGGSPGIKIEIWFMIMFPVKPDPDNGKPRWYMIMVSPKMWYDPEPGGMQIEIDINIMPLGDPEAFSAGGSA [r2_489_TrROS]”, the “folding stability dG unfold” value rises from 1.7 ± 0.089 kcal/mol to 3.41 ± 0.21 kcal/mol.

For “SAGGGMEPKPVEVTLTIPKGTVTPEDKVPVSTIAKLLGIPEDTEVTVEKITPVPNSDTELVTLTIVTSAGGS [r16_165_JUSTAS]”, the “folding stability dG unfold” value was 0.615 ± 0.12 kcal/mol.
